We go through 4 molecules from US20080233097A1, “Phosphorylation Site Of Mitogen-Activated Protein Kinases, Modified Proteins And Applications” (UNIVERSIDAD AUTONOMA DE MADRID, priority 2005, published 2008).

The subject of data set [1] is β2-adrenergic (β2-AR) receptor. Kind of data set: isoproterenol stimulation of HEK 293 cells with β2-AR, Flag-p38α and GRK2 (co-immunoprecipitation, anti-phospho-p38). The class given is cell-based, human.
Procedure: 48 hours after the transfection and after a 2 hour serum starvation, the cells were stimulated with the adrenergic agonist isoproterenol (ISO, 10 μM) for 5 or 10 minutes or they were not stimulated (0 min ISO). Likewise, cells without overexpressed β2-AR receptor were stimulated with 0.5 M NaCl for 15 minutes. The cells were solubilized in a buffer suitable for immunoprecipitation with the M2 anti-Flag antibody bound to agarose and after taking aliquots of these lysates (10%) for overexpression control (lysate panels) the immune complexes were incubated overnight at 4° C. The immunoprecipitated proteins (Ip anti-Flag) were resuspended in an electrophoresis breaking buffer and the bound proteins were resolved in a 10% SDS-polyacrylamide gel. […] The negative immunoprecipitation controls (Cneg) in the absence of Flag-p38α and of stimulation with 10 μM isoproterenol are also included in the figure. […] As described in A, non-specific immunoprecipitation controls (Cneg) of the M2 anti-Flag-agarose antibody were carried out.
In the GRK2 and Flag-p38α association experiments, a 1:1:1 ratio of GRK2 (or GRK2-K220R), Flag-p38α, and β2-adrenergic receptor was used (generally 1 μg of each per p60).
The stimulation of HEK293 cells with 10 μM isoproterenol (Sigma) was carried out at 37° C. in culture medium without serum. […]
Another data set addresses T1, GRK2 (Bos taurus, UniProt P21146).
T1 construct: made in house; host or cells: Sf9 cells (baculovirus)
T1 sequence (P21146 1-689): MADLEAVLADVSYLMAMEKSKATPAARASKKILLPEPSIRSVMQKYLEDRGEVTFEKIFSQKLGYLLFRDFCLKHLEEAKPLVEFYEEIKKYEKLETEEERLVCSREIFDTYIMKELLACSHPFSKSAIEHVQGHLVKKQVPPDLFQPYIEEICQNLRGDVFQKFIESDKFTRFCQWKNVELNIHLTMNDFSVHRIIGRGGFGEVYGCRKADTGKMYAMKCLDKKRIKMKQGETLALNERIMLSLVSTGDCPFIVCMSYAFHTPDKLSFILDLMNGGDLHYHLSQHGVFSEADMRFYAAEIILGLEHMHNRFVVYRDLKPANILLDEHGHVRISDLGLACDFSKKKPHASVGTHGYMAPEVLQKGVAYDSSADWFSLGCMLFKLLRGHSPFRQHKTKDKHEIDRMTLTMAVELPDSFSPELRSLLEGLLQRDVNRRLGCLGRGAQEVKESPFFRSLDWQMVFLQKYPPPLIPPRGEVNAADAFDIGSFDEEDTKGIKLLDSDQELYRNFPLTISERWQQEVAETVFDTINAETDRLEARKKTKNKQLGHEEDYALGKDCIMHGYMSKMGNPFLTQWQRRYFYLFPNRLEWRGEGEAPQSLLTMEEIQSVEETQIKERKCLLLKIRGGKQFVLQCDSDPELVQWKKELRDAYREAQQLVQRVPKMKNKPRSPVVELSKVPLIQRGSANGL
Kind of data set: phosphorylation of p38 mutants and truncated proteins by GRK2 in vitro. The format is biochemical. Conditions: GST fusion proteins, 30 minutes at 30° C. As to the method:
FIG. 6A: Proteins fused to GST (black rectangle in the protein schemes) were purified from bacteria transformed with the plasmids pGEX2T-p38α, pGEX4T-Mxi2 and pGEX4T-Mxi2Δ17: p38α, Mxi2 and Mxi2Δ17. The […] isoforms used as C-terminal truncated mutants for trying to limit the GRK2 phosphorylation site. […] Heparin (150 nM) was included as a specific GRK2 inhibitor. The reactions were stopped by adding SDS breaking buffer. The samples were resolved in 8% SDS-PAGE. For the purpose of assuring the inclusion of identical amounts of protein, they were first visualized in the gel by Coomassie Brilliant Blue (CBB) staining. Then the gel was dried and the radioactivity incorporated to the proteins (^32P) was detected. FIG. 6B: The truncated GST-280-360p38 protein, corresponding to the last 80 p38α amino acids, was generated by means of the Invitrogen Gateway system. Phosphorylation assays were carried out with Mxi2Δ17 as a p38 N-terminal, 280-360 p38 as C-terminal and with whole p38α in the same conditions as described in section A. The phosphorylation was detected by autoradiography (^32P) and controls of the amount of protein used in the assays were carried out concomitantly by Western blot with the anti-GST antibody. The presence of the GST-280-360p38 protein, which is not phosphorylated, is clearly observed. STD, mobility of standard molecular weight proteins.
FIG. 9A: p38T123A and p38T123D proteins, fused to GST, were made by directed mutagenesis in the prokaryotic expression plasmids pGEX2T. The ability of the recombinant GST-p38T123A and GST-p38T123D proteins to be GRK2 substrates in comparison to the wild GST-p38WT protein and at the final concentrations indicated in the Figure was assayed. The upper panels represent the obtained phosphorylation (32 P) and the lower panels show, by anti-p38N WB, the amount of recombinant protein used in the assays. […]
Heparin (150 nM) was included as a specific GRK2 inhibitor. […] Subsequently, the gel was dried and the radioactivity incorporated to the proteins (^32P) was detected. […]

The test system of another data set is 3T3-L1 cells. Put plainly: adipocyte differentiation of 3T3-L1 (Oil Red staining, adipocyte count). Conditions: 3T3L1 lines stably transfected, day 15. The class given is cell-based. From the text:
3T3L1 lines stably transfected with pCDNA3-GRK2 and pCDNA3-GRK2K220R were made. GRK2 (anti-GRK2) expression controls obtained in cell lines, compared to 3T3L1 levels, are included. The cells were subjected to a standard differentiation treatment and on day 15 of the latter, the cells were fixed with formalin and stained with Oil Red, a lipophilic coloring which binds to the fats accumulated by the adipocytes. The cells with adipocytic phenotype (in red) were counted under microscope in a total of 25 fields. Representative photographs of two independent experiments are shown in duplicate. A photo of the 3T3L1 cells, free of stimulation with insulin during the differentiation process (control), is also included. The graph reflects the adipocyte count (±SEM) in these experiments.
The cell culture was carried out with 10% DMEM medium of NCS serum. However, the entire differentiation process which is described below must be performed in depleted AXC serum (ion exchange resin) by means of successive adsorptions of fetal calf serum on an anion exchange resin and on active carbon. AXC serum was provided by the kitchen service of the Instituto of Investigaciones Biomédicas (Biomedical Research Institute). The cells are grown until their confluence and are plated (5×10^5 in P-100) in DMEM-10% AXC medium, supplemented with 4 μM of biotin (Sigma). The following day, the medium is replaced with fresh medium. The cells are grown another three days, until confluence is reached again, that day is called day “0”. On day 0 of differentiation, the cells are cultured in a medium containing: 0.5 μM dexamethasone (Sigma), 0.5 mM 3-isobutyl-1-methylxanthine (IMBX, of Sigma) and 1 μM insulin (Sigma) and in which they will remain for another three days. […] From day 6 to day 15, the adipogenesis was analyzed by staining with Oil Red, a red coloring of lipophilic constitution which binds to the drops of fat accumulated by the adipocytes in their cytoplasm. […] The cells are counted in a total of 25 fields per each experimental plate.

In the case of `CC(C)NCC(O)c1ccc(O)c(O)c1` (centres unmarked) [isoproterenol], the “p38 activation (anti-phospho-p38)” value in data set [1] (10 μM) was “not very strong”. Also, the “association between GRK2 and p38 (co-immunoprecipitation)” value in data set [1] (10 μM, 0, 5 or 10 minutes) is reported as “maximum association is obtained five minutes after exposure”.

B1: GST-280-360 p38α: truncated protein corresponding to the last 80 amino acids of p38α, fused to GST (protein)
chain: AVDLLEKMLVLDSDKRITAAQALAHAYFAQYHDPDDEPVADPYDQSFESRDLLIDEWKSLTYDEVISFVPPPLDQEEMES
modifications: left off: a dimerising Fc or GST
notes: truncated protein corresponding to the last 80 amino acids of p38α, fused to GST
B1: in the data set with GRK2, the “ability to be a GRK2 substrate (32P incorporation)” value is “no trace whatsoever of phosphorylation”.

B2: purified MKK6 (recombinant MKK6CAM, Upstate Biotech) (protein)
chain: MSQSKGKKRNPGLKIPKEAFEQPQTSSTPPRDLDSKACISIGNQNFEVKADDLEPIMELGRGAYGVVEKMRHVPSGQIMAVKRIRATVNSQEQKRLLMDLDISMRTVDCPFTVTFYGALFREGDVWICMELMDTSLDKFYKQVIDKGQTIPEDILGKIAVSIVKALEHLHSKLSVIHRDVKPSNVLINALGQVKMCDFGISGYLVDEVAKEIDAGCKPYMAPERINPELNQKGYSVKSDIWSLGITMIELAILRFPYDSWGTPFQQLKQVVEEPSPQLPADKFSAEFVDFTSQCLKKNSKERPTYPELMQHPFFTLHESKGTDVASFVKLILGD
Turning to B2, in the data set with GST-p38T123D, the “phosphorylation by MKK6CAM (32P incorporation)” value is given as “GST-p38T123D is a much worse MKK6CAM substrate than the other two p38”.

B3: K220R: catalytically inactive GRK2-K220R mutant (protein)
chain: MADLEAVLADVSYLMAMEKSKATPAARASKKILLPEPSIRSVMQKYLEDRGEVTFEKIFSQKLGYLLFRDFCLKHLEEAKPLVEFYEEIKKYEKLETEEERLVCSREIFDTYIMKELLACSHPFSKSAIEHVQGHLVKKQVPPDLFQPYIEEICQNLRGDVFQKFIESDKFTRFCQWKNVELNIHLTMNDFSVHRIIGRGGFGEVYGCRKADTGKMYAMRCLDKKRIKMKQGETLALNERIMLSLVSTGDCPFIVCMSYAFHTPDKLSFILDLMNGGDLHYHLSQHGVFSEADMRFYAAEIILGLEHMHNRFVVYRDLKPANILLDEHGHVRISDLGLACDFSKKKPHASVGTHGYMAPEVLQKGVAYDSSADWFSLGCMLFKLLRGHSPFRQHKTKDKHEIDRMTLTMAVELPDSFSPELRSLLEGLLQRDVNRRLGCLGRGAQEVKESPFFRSLDWQMVFLQKYPPPLIPPRGEVNAADAFDIGSFDEEDTKGIKLLDSDQELYRNFPLTISERWQQEVAETVFDTINAETDRLEARKKTKNKQLGHEEDYALGKDCIMHGYMSKMGNPFLTQWQRRYFYLFPNRLEWRGEGEAPQSLLTMEEIQSVEETQIKERKCLLLKIRGGKQFVLQCDSDPELVQWKKELRDAYREAQQLVQRVPKMKNKPRSPVVELSKVPLIQRGSANGL
B3: in the data set on 3T3-L1 cells, the “acquisition of the adipocytic morphology mediated by insulin” value is recorded as “stimulates it”.
